This is an account of results in patent publication EP1260521B1.

Experiment [1] deals with FCEH-bound IgE (human IgE loaded on FcERI alpha) (human) (UniProt P01854). As to the kind of experiment: cell-based or functional assay.
Experiment [2] deals with membrane IgE on U266 B1 cells (human) (UniProt P01854). In words: FACS on U266 B1 cells.
In the next experiment the target is human IgE (human) (UniProt P01854). In words: 50% inhibition assay of IgE binding to FCEH.

B1: MaE 13 (antibody, from another filing, mouse IgG1, V domains shown)
VH: DVQLQESGPGLVKPSQSLSLTCTVTGYTITSDNAWNWIRQFPGNKLEWMGYINHSGTTSYNPSLKSRISITRDTSKNQFFLQLNSVTTEDTATYYCAWVVAYAMDYWGQGTSVTVSS
VL: DIVMTQSQKFMSTSVGDRVSVTCKASQNVSSNVAWYQQKPGQSPKALIYSASYRYSGVPDRFTGSGSGTDFTLTISNVQSEDLAEYFCQQYYTYPLYTFGGGTKLEIKR
Consider B1, for which the PBL Histamine Release (EC50) in experiment [1] is above 10 µg/mL. In experiment [2], this molecule registered an EC50 of 1 µg/mL.

B2: MaE 11 (antibody, from another filing, mouse IgG1, V domains shown)
VH: DVQLQESGPGLVKPSQSLSLACSVTGYSITSGYSWNWIRQFPGNKLEWMGSITYDGSSNYNPSLKNRISVTRDTSQNQFFLKLNSATAEDTATYYCARGSHYFGHWHFAVWGAGTTVTVSS
VL: DIVLTQSPASLAVSLGQRATISCKASQSVDYDGDSYMNWYQQKPGQPPILLIYAASYLGSEIPARFSGSGSGTDFTLNIHPVEEEDAATFYCQQSHEDPYTFGAGTKLEIK
In the experiment with human IgE (human), B2 came in with a concentration for half-maximal inhibition (IC50) of 0.449 µg/mL, a Var. X / IgL1H1 of 0.06 and a Var. X / MaE11 of 1. For the same molecule, the PBL Histamine Release (EC50) in experiment [1] is above 100 µg/mL. This molecule also registered a concentration giving a half-maximal response (EC50) in experiment [2] of 0.15 µg/mL.

B3: MaE 15 (antibody, from another filing, mouse IgG1, V domains shown)
VH: DVQHQESEPDLVKPSQSLSLTCTVTGYSITSGYNRHWIRQFPGNKLEWMGYIHYSGSTNYNPSLKRRISITRDTSKNQFFLQLNSVTTEDTATYYCARGSIYYYGSRYRYFDVWGAGTTVTVSS
VL: DIQLTQSPASLAVSLGQRATISCKASQSVDYDGDSYMNWYQQKPGQPPKLLIYAASNLESGIPARFSGSGSGTDFTLNIHPVEEEDAATYYCQQSNEDPFTFGAGT
As for B3, the PBL Histamine Release (EC50) in experiment [1] is above 100 µg/mL. Also, the EC50 in experiment [2] amounted to 6 µg/mL.

By EC50 is commonly meant the concentration that produces a half-maximal response. In general, IC50 refers to the midpoint of a concentration-inhibition curve. Low readings indicate inhibition by little substance, high ones a need for much substance.
